What was measured:
[1] = molecular target: R719W human β-cardiac myosin 2-hep HMM (human, UniProt P12883 1-855; P08590 1-195; P10916 1-166, R719W); experiment: MST
[2] = molecular target: D382Y human β-cardiac myosin 2-hep HMM (human, UniProt P12883 1-855; P08590 1-195; P10916 1-166, D382Y); experiment: MST
Sequence of D382Y human β-cardiac myosin 2-hep HMM (P12883 1-855 D382Y, chain 1 of 3): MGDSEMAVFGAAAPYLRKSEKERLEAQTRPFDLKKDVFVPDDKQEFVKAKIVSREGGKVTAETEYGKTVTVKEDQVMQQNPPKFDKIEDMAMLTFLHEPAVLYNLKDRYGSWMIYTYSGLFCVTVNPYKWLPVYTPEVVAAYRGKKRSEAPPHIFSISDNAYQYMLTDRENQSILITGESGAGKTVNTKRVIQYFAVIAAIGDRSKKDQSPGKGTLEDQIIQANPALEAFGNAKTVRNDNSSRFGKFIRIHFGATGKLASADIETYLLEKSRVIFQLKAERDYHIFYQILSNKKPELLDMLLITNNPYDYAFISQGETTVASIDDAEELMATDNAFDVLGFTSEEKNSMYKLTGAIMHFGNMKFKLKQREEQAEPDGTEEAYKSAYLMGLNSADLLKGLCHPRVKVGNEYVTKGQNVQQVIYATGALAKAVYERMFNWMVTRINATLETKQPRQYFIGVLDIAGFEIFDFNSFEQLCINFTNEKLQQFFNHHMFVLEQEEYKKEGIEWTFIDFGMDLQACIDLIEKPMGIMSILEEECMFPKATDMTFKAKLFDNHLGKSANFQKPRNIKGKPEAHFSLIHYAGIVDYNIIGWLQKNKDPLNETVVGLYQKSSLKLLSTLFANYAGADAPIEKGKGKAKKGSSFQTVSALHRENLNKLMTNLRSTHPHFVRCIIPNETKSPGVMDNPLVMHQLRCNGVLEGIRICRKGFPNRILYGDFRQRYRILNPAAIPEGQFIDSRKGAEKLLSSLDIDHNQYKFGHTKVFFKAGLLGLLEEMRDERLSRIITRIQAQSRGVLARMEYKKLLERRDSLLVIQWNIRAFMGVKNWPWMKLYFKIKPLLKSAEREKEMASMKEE
Sequence of D382Y human β-cardiac myosin 2-hep HMM (P08590 whole entry, chain 2 of 3): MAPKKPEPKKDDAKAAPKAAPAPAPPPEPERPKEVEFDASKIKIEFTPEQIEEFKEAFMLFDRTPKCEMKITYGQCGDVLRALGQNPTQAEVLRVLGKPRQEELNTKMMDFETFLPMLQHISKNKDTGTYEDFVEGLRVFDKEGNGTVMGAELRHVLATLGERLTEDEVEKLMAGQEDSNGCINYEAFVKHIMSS
Sequence of D382Y human β-cardiac myosin 2-hep HMM (P10916 whole entry, chain 3 of 3): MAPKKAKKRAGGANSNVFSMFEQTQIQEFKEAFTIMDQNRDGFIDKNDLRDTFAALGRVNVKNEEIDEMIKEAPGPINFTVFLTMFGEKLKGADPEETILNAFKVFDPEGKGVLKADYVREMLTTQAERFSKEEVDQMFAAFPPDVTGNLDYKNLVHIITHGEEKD

Sequence of R719W human β-cardiac myosin 2-hep HMM (P12883 1-855 R719W, chain 1 of 3): as the sequence (P12883 1-855 D382Y, chain 1 of 3) above, with Y382D, R719W counted along it
Sequence of R719W human β-cardiac myosin 2-hep HMM (P08590 whole entry, chain 2 of 3): as the sequence (P08590 whole entry, chain 2 of 3) above
Sequence of R719W human β-cardiac myosin 2-hep HMM (P10916 whole entry, chain 3 of 3): as the sequence (P10916 whole entry, chain 3 of 3) above

fold change of affinity against WT 2-hep HMM [1]: < 2 fold
fold change of affinity against WT 2-hep HMM [2]: < 2 fold
B1: proximal S2 (amino acids 839-968) (domain or fragment, human, UniProt P12883 839-968, looked up)
chain: LLKSAEREKEMASMKEEFTRLKEALEKSEARRKELEEKMVSLLQEKNDLQLQVQAEQDNLADAEERCDQLIKNKIQLEAKVKEMNERLEDEEEMNAELTAKKRKLEDECSELKRDIDDLELTLAKVEKEK

From paper doi:10.1101/537159 (bioRxiv, 2019)
